The record followed here is US20200339680A1 (Alector, published 2020).

Positions count from the first letter of the chain named.

Assay [1] addresses T1, human TMEM106B (human, UniProt Q9NUM4 2-274).
T1 construct: full-length, transiently expressed on HEK293 cells, or natively expressed on HeLa, U251 and A549 cells (the cell is named under assay); also the source of the Pepscan peptides; also called huTMEM106B; huTMEM
Kind of assay: FACS HEK+huTMEM 1.0 ug/ml.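 Note: binding of purified mouse IgG antibodies to HEK293 cells transiently expressing human TMEM106B, read by flow cytometry as median fluorescence intensity of live, propidium iodide-negative cells.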
Method: (§1) Purified anti-TMEM106B antibodies were evaluated for their binding affinity to various TMEM106B-expressing cell lines including HEK293 transiently transfected with human/cyno/mouse TMEM106B, as well as HeLa cells and A549 cells. Antibodies tested for this experiment were mouse IgGs purified from hybridoma supernatant. Affinity binding to cells was determined as follows. Briefly, 1×10\hat{ }5 cells were aliquoted per well in 96-well round bottom plates and incubated with 50 μL of purified anti-TMEM106B antibody at various concentrations (10× dilutions starting at 10 μg/ml) in FACS buffer (PBS+2% FBS+1 mM EDTA). […] Sorting was performed on a iQue (Intellicyt), with sort gates drawn to exclude dead (propidium iodide+) cells. Binding data was analyzed using median fluorescent intensity (MFI) and graphed in Prism. Values presented are MFI.

Assay [2] concerns the target T1, human TMEM106B. In words: FACS HEK+huTMEM 0.1 ug/ml.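 Note: flow cytometry binding of purified mouse IgG antibodies to HEK293 cells transiently expressing TMEM106B, read as median fluorescence intensity on live cells (propidium iodide negative gating).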
Method: as §1
Assay [3] concerns the target T1, human TMEM106B. Kind of assay: FACS A549.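 Note: flow cytometry of cells incubated on ice for 1 h with hybridoma supernatant or purified antibody at 10 µg/mL, dead propidium iodide-positive cells gated out.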
Method: (§2) All cells were cultured in either T75 or T150 flasks. […] The enzyme was quenched by addition of fresh media, and the cells were then distributed into 96-well plates for FACS analysis.
(§3) FACS analysis was performed as follows. Each cell type was aliquoted in 96-well round bottom plates (2×10^5 cells per well), washed once with FACS buffer (PBS+2% FBS+1 mM EDTA), and incubated with 50 μL of hybridoma supernatant or purified antibody (10 μg/ml in FACS buffer) on ice for 1 hour. […] Following this secondary incubation, the cells were again washed 2× with ice-cold FACS buffer and resuspended in a final volume of 50 μL of FACS buffer+0.25 μl/well propidium iodide (Fisher Scientific #4BDB556463). Analysis was performed on a FACSCanto system (BD Biosciences) or iQue (Intellicyt), with sort gates drawn to exclude dead (i.e., propidium iodide positive) cells.
For assay [4], the target named is T1, human TMEM106B. In words: FACS U251.
Method: as §2, §3
A further assay concerns the target T2, mouse TMEM106B (mouse, UniProt Q80X71 2-275).
T2 construct: transiently expressed on HEK293 cells, or native on mouse Neuro2a cells; also called moTMEM106B; murine TMEM106B
In words: FACS Neuro2a.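 Note: flow cytometry of antibody binding to cells: hybridoma supernatant or purified antibody at 10 µg/ml, 1 h on ice, secondary detection, propidium iodide–positive dead cells gated out.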

Assay [5] has as its target T1, human TMEM106B. Kind of assay: FACS A549 1 ug/ml.
In assay [6] the target is T1, human TMEM106B. In words: FACS HeLa.
Method: as §2, §3
The target in assay [7] is T1, human TMEM106B. Kind of assay: FACS HEK+huTMEM 10 ug/ml.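 Note: flow cytometric binding of purified mouse IgG antibodies to HEK293 cells transiently expressing human TMEM106B, read as median fluorescence intensity on live cells with propidium iodide-positive cells excluded.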
Method: as §1
The target in assay [8] is T1, human TMEM106B. In words: FACS HEK+huTMEM 0.1 ug/ml (2nd column so headed).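 Note: flow cytometry binding of purified anti-TMEM106B mouse IgG to HEK293 cells transiently transfected with TMEM106B, read as median fluorescence intensity on live (propidium iodide-negative) cells.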
The target in assay [9] is T1, human TMEM106B. In words: FACS A549 10 ug/ml.
Method: as §1

B1: TM-6 (antibody, V domains shown)
VH: QVQLQQSGAELVKPGASVKLSCKASGYTFTEYTIHWVKQRSGQGLEWIGWFYPGSTYIDYNEKFKDKATLTADKSSSTVYLELSRLTSEDSAVYFCARHEEDYSNWFPFWGQGTLVTVSA
VL: DIQMSQSSSYLSVSLGGRVTITCKASDHINNWLAWYQQKPGNAPRLLISGATSLETGVPSRFSGSGSGKDYTLSITSLQTEDVATYYCQQYWSSPYTFGGGTKLEIK
notes: mouse IgG (hybridoma)
Take B1: the MFI came out at 393 MFI in the assay with human TMEM106B [1]; 327 MFI in the assay with human TMEM106B [2]; 1100 MFI in the assay with human TMEM106B [3]; 304 MFI with human TMEM106B [4]; 371 MFI with mouse TMEM106B; 418 MFI with human TMEM106B [5]. Besides, the MFI with human TMEM106B [6] turned out to be 520 MFI; with human TMEM106B [7] it was 581 MFI; in the assay with human TMEM106B [8], 294 MFI; in the assay with human TMEM106B [9], 544 MFI.

B2: TM-3 (antibody, V domains shown)
VH: QVTLKESGPGIVQPSQTLSLTCSFSGFSLNTLGRGVGWIRQPSGKGLEWLAKIWWNDDKFYYPALKSRLTISKDTSKNQIFLKIANVDTADSATYYCARIAGGTGAAYWGQGTTLTVSS
VL: DIVMTQAAFSNPVTLGTSASISCRSSKSLLHSNGITYLYWYLQKPGQSPQLLISQMSSLASGVPDRFSSGGSGTDFTLRISRVEAEDVGVFYCAQNLELPWTFGGGTKLELK
As for B2, the MFI with human TMEM106B [1] turned out to be 89100 MFI; in the assay with human TMEM106B [2], 48700 MFI; with human TMEM106B [3], 1800 MFI; with human TMEM106B [4], 1080 MFI; in the assay with mouse TMEM106B, 1980 MFI; with human TMEM106B [5] it was 4840 MFI. The MFI was 2690 MFI in the assay with human TMEM106B [6], 82300 MFI with human TMEM106B [7], 7700 MFI with human TMEM106B [8] and 7670 MFI with human TMEM106B [9].

B3: TM-39 (antibody, V domains shown)
VH: HVQRQQSGTELAKPGASVKLSCKTSGYTFTDYWMHWIKQRPGQGLEWIGFINPSSGYTKYNQNFKDKATLTADKSSSTAYMQLSSLTYEDSAVFYCAREAGSISDWYFDVWGTGTTVTVSS
VL: DIVMTQAAPSIPVTPGESVSISCRSSKTLLNSNGNTYLYWFLQRPGQPPQLLIYRMSNLASGVPDRFSGSGSGTAFTLRISRVEAEDVGVYYCMQHLDYPYTFGGGTQLEIK
Consider B3, for which the MFI in the assay with human TMEM106B [1] came out at 55600 MFI; with human TMEM106B [2], 19200 MFI; with human TMEM106B [5], 3610 MFI; with human TMEM106B [7] it was 51900 MFI; with human TMEM106B [8], 3850 MFI; in the assay with human TMEM106B [9], 5330 MFI.

B4: TM-24 (antibody, V domains shown)
VH: QVQLKQSGPGQVQPSQSLSITCTVSGFSLSDYGVHWVRQSPGKGLEWLGVIWNNGNTDYNAAFISRLSINKDNSKSQVFFKMTSLQADDTAIYYCVRSLRPLHFDYWGQGTTVTVSS
VL: DIVMTQSPSSLTMSVGQKVTMNCKSSQSLLNSNNQQNYLAWYQQKPGQSPKLLVYFASIRESGVPDRFIGSGSGTDFTLTINSVQAEDLADYFCQQHYSTPFTFGSGTKLEIR
notes: mouse IgG (hybridoma)
Regarding B4, the MFI with human TMEM106B [1] was 64500 MFI; in the assay with human TMEM106B [2], 22000 MFI; with human TMEM106B [5], 2880 MFI; in the assay with human TMEM106B [7], 66300 MFI; with human TMEM106B [8], 3620 MFI; with human TMEM106B [9], 4480 MFI.

B5: TM-7 (antibody, V domains shown)
VH: EVQLQQSGPVLVKPGPPVKISCKASGFTFTDYYIHWVKLSHGKSLEWIGLVYPYNGDTDYNQKFKGKATLTVDTSSSTAYMELNSLTSEDSAVYYCARTYYANSPDYWGQGTTVTVSS
VL: DIVMTQSPSSLSVSAGEKVTMSCKSSQSLLNSGNQRNYLAWYQQKPGQPPKLLIYGASTRESGVPDRFTGSGSGTDFTLTISNVQAEDLAVYYCQNDHSYPLTFGAGTKLELK
On to B5, for which the MFI came to 40000 MFI in the assay with human TMEM106B [1]; 9870 MFI in the assay with human TMEM106B [2]; 647 MFI with human TMEM106B [3]; 442 MFI in the assay with human TMEM106B [4]; 1200 MFI in the assay with mouse TMEM106B; 883 MFI in the assay with human TMEM106B [5]. The MFI stood at 1070 MFI with human TMEM106B [6], 40800 MFI with human TMEM106B [7], 1670 MFI with human TMEM106B [8] and 1810 MFI with human TMEM106B [9].

B6: TM-1 (antibody, V domains shown)
VH: QVQLQQSGAELVRPGTSVKVSCKASGYAFTNYLIEWVKQRPGQGLEWIGVINPGSGGTKYNEKLKGKATLTADKSSSTAYMQLSSLTSVDSAVYFCARRGYTIYDFYAMDYWGQGTSVTVSS
VL: DVLMTQTPLSLPVSLGDHASISCRSSQSIVYNNGNTYLEWYLQKPGQSPKLLIYKVSNRFSGVPDRFSGSGSGTDFTLKISRVEAEDLGVYYCFQVSHVPFTFGSGTKLEIK
With B6, the MFI was found to be 2010 MFI with human TMEM106B [1]; 1330 MFI with human TMEM106B [2]; 1460 MFI with human TMEM106B [3]; 244 MFI with human TMEM106B [4]; 253 MFI with mouse TMEM106B; 364 MFI with human TMEM106B [5]. The MFI worked out at 253 MFI in the assay with human TMEM106B [6], 2380 MFI with human TMEM106B [7], 655 MFI with human TMEM106B [8] and 409 MFI with human TMEM106B [9].

B7: TM-30 (antibody, V domains shown)
VH: QVQLQQSGPELVKPGASVKLSCKASDNTFTNYDVNWVRQRPGQGLEWIGWIYPRDGTTIYNEKFKGRATLTVDTSSSTAYMELHSLTSEDSAVFFCARTLPQAMDYWGQGTSVTVSS
VL: B6 VL with T7S, H18Q, A19V, S28T, Y31H, N32R, V96G, V99L, F101W, S105G
notes: mouse IgG (hybridoma)
For B7, the MFI was 63500 MFI with human TMEM106B [1]; 18400 MFI in the assay with human TMEM106B [2]; 3030 MFI with human TMEM106B [5]; 61500 MFI with human TMEM106B [7]; 3070 MFI with human TMEM106B [8]; 4040 MFI in the assay with human TMEM106B [9].

B8: TM-32 (antibody, V domains shown)
VH: EVQLQQSGAELVRPGASVRLSCIASGFNIKDYYMYWVKQRPEQGLEWIGRIDPEDGDTEYVPKFQGKATMTADTSSNTAYLQLSSLTSEDIGVYYCTTRTWDLYYAVDNWGQGTSVTVSS
VL: B6 VL with H18Q, S28N, Y31H, N32S, Y54D, V90I, V96G
As for B8, the MFI with human TMEM106B [1] was found to be 63300 MFI; in the assay with human TMEM106B [2], 20300 MFI; in the assay with human TMEM106B [5], 3930 MFI; with human TMEM106B [7], 61100 MFI; with human TMEM106B [8] it was 4100 MFI; with human TMEM106B [9], 6100 MFI.

B9: TM-8 (antibody, V domains shown)
VH: QIQLVQSGPELKKPGETVKISCKASGYTFTDYPMHWVKQAPGKGFKWMGVIYTDTGEPKYAEVFKGRFAFSLETSASTAYLQINNLKNEDTATYFCVRRLAYWGQGTLVTVSA
VL: DIKMTQSPSSMYASLGERVTITCKASQDINSYLSWFQQKPGKSPKTLIFRANRLVDGVPSRFSGSGSGQDYSLTISSLEYEDMGIYYCLQYDEFPLTFGAGTKLEMK
notes: mouse IgG (hybridoma)
Consider B9, for which the MFI came to 317 MFI with human TMEM106B [1]; 305 MFI in the assay with human TMEM106B [2]; 554 MFI with human TMEM106B [3]; 304 MFI in the assay with human TMEM106B [4]; 370 MFI with mouse TMEM106B; 393 MFI with human TMEM106B [5]. The MFI was found to be 568 MFI with human TMEM106B [6], 465 MFI with human TMEM106B [7], 301 MFI in the assay with human TMEM106B [8] and 492 MFI with human TMEM106B [9].

B10: TM-31 (antibody, V domains shown)
VH: QVQLQQSGAELAKPGASVKVSCKASGYTFISYWMNWVKQRPGQGLEWIGYINPTSGYTRYNQKFKDKATLTADKSSSTAYMQLSSLTYEDSAVYYCARSPPTVVLIGYFDYWGQGTTLTVSS
VL: B9 VL with I21F, F49Y, A51G, R53G, L96F, G99A, A100S, M106I
notes: mouse IgG (hybridoma)
For the molecule B10, the MFI with human TMEM106B [1] was found to be 3680 MFI; with human TMEM106B [2], 1390 MFI; in the assay with human TMEM106B [4], 352 MFI; with mouse TMEM106B it was 325 MFI; with human TMEM106B [5], 403 MFI; with human TMEM106B [6], 799 MFI. Also, the MFI in the assay with human TMEM106B [7] was determined as 6060 MFI; in the assay with human TMEM106B [8], 596 MFI; with human TMEM106B [9], 527 MFI.

B11: TM-2 (antibody, V domains shown)
VH: HIQLVQSGPELKKPGETVKISCKASGYTFTEYPMHWVKQAPGKGFRWMGMIYTNTGEPTYAAEFKGRFAFSLETSASTGYLQINNLKNEDSATYFCVTAGYWGQGTLVTVSA
VL: QIVLTQSPAILSASPGEKVTMTCRASSSVSYIHWFLQKPGSSPKPWIYATSNLASGVPFRFIGSGSGTSYSLTISGVEAEDSATYYCQQWSSNPSTFGAGTKLELK
As to B11, the MFI with human TMEM106B [1] stood at 29300 MFI; with human TMEM106B [2], 4730 MFI; with human TMEM106B [3], 1890 MFI; in the assay with human TMEM106B [4], 1410 MFI; with mouse TMEM106B, 2900 MFI; with human TMEM106B [5] it was 1090 MFI. Also, the MFI with human TMEM106B [6] was 2530 MFI; with human TMEM106B [7] it was 55500 MFI; with human TMEM106B [8], 1440 MFI; with human TMEM106B [9], 3360 MFI.

B12: TM-5 (antibody, V domains shown)
VH: QVQLQQSGTELARPGASVKVSCKASGYIFTTYGITWVKQRGGQGLEWIGEIYPRSDNTYYNEKFKDKATLTADKSSSTAYMELRSLTSEDSAVYFCARSKGSGTGDYWGQGTTVTVSS
VL: DIQMTQSPASLSASVGETVTITCRASENIYIYLAWYQQKQGKTPQLLVYNGKMLAENVPSRFSGSGSGTQFSLKINSLQPEDFGSYYCQHHYGSPPAFGAGTKLELK
On to B12, for which the MFI stood at 64500 MFI with human TMEM106B [1]; 10800 MFI with human TMEM106B [2]; 1170 MFI with human TMEM106B [3]; 866 MFI in the assay with human TMEM106B [4]; 1610 MFI with mouse TMEM106B; 1970 MFI in the assay with human TMEM106B [5]. The MFI with human TMEM106B [6] was found to be 1740 MFI; with human TMEM106B [7] it was 59300 MFI; with human TMEM106B [8], 2180 MFI; in the assay with human TMEM106B [9], 4800 MFI.
